US20260174875A1 (Novo Nordisk A/S, priority 2023, published 2026)
Square brackets hold non-standard residues; d marks the D form. Aib = CC(C)(N)C(=O)O

T1: human GIP receptor (human, UniProt P48546 22-466)
T1 sequence (looked up): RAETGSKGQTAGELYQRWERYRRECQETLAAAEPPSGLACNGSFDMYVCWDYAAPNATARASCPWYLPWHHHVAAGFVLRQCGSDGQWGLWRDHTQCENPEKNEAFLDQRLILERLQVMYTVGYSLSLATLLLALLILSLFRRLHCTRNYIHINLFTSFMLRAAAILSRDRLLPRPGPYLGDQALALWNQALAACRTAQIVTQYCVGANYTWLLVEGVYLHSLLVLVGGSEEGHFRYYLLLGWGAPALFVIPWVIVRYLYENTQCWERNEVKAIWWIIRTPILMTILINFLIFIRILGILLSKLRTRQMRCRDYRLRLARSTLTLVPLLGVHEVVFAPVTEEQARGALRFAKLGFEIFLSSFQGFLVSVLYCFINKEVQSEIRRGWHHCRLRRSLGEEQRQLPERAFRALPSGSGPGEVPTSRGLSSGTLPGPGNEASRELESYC

T2: human amylin-3(a) receptor (human, UniProt P30988 25-474; O60896 24-148)
T2 sequence (looked up) 1: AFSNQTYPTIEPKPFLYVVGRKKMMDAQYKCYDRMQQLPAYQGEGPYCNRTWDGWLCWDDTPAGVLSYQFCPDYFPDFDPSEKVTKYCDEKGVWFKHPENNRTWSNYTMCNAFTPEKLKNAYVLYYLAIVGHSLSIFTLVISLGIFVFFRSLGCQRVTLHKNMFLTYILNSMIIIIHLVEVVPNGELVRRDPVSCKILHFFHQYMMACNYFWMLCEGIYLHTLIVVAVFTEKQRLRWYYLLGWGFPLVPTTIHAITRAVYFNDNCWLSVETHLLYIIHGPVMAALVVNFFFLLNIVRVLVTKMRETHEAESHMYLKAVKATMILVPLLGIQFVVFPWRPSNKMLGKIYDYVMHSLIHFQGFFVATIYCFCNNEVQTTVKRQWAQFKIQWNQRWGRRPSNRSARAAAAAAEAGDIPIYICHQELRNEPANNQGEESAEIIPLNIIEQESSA
T2 sequence (looked up) 2: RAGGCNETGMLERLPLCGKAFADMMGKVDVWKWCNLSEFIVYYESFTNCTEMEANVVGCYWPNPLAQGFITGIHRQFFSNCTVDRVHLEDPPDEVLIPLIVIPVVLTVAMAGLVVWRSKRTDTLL


How the values were obtained:
Experiment in all cases: cell-based or functional assay
[1] = biological target: human GLP-1 receptor (human, UniProt P43220 24-463)
[2] = biological target: T1, human GIP receptor
[3] = biological target: T2, human amylin-3(a) receptor

hGLP-1R Potency, no HSA, EC50 [pM] [1] [pM] | hGIPR Potency, no HSA, EC50 [pM] [2] [pM] | hAMYR3 Potency, no HSA, EC50 [pM] [3] [pM] | Binder
9 | – | – | Compound 217 (also: further groups not given here) peptide: Y[Aib]EGTFTSDYSILLEEIAAREFIEWLLAGGPSSGAGQAPGEAPGASHLSTAQTQRLSAELHKLATLPRTETGSGSP-NH2
16.4 | 9.57 | 7.28 | Compound 210 (also: further groups not given here) peptide: Y[Aib]EGTFTSDYSILLEEQAAREFIEWLLAGGPSSGAGQAPGQAPGASHLSTAQTQRLSAELHKLATLPRTETGSGSP-NH2
– | 0.5 | 5 | Compound 219 (also: further groups not given here) peptide: Y[Aib]EGTFTSDYSILLEEIAAREFIEWLLAGGPSSGAGQAPGQAEGASHLSTAQTQRLSAELHKLATLPRTETGSGSP-NH2
